Experimental findings from paper PMC6504924 (2019) are described below.

Usually EC50 stands for the concentration that produces a half-maximal response. In general, Kd refers to the concentration at which binding is half-saturated. The term IC50 denotes the concentration that inhibits the measured activity by half. By Ki is commonly meant a dissociation constant, usually derived from enzyme kinetics or from competition with a known ligand.

Assay [1] concerns the target T1, NanoLuc:EGFR fusion on cells (UniProt P00533 25-1210).
The target of assay [2] is T1, NanoLuc:EGFR fusion on cells. The source holds these as a separate data set.
For assay [3] the target is unchanged. The assay is described as follows: competition with CBT-labeled EGF.
For assay [4] the target is unchanged. Kind of assay: competition with CBT-labeled EGF. The source holds these as a separate data set.
The target of assay [5] is T2, NanoLuc:PDGFRβ fusion on cells (UniProt P09619 33-1106).
In assay [6] the target is T2, NanoLuc:PDGFRβ fusion on cells. This is another data set of the same source.
The target is the same in assay [7]. Kind of assay: competition with CBT-labeled PDGF-BB.
Assay [8] has the same target. The assay is described as follows: competition with CBT-labeled PDGF-BB. This is another data set of the same source.
In assay [9] the target is T3, NanoLuc:VEGFR2 fusion on cells (UniProt P35968 20-1356). Kind of assay: competition with CBT-labeled VEGF165a.
Assay [10] deals with T3, NanoLuc:VEGFR2 fusion on cells. Kind of assay: competition with CBT-labeled VEGF165a. The source holds these as a separate data set.
Assay [11] shares this target.

T2 sequence (P09619 33-1106): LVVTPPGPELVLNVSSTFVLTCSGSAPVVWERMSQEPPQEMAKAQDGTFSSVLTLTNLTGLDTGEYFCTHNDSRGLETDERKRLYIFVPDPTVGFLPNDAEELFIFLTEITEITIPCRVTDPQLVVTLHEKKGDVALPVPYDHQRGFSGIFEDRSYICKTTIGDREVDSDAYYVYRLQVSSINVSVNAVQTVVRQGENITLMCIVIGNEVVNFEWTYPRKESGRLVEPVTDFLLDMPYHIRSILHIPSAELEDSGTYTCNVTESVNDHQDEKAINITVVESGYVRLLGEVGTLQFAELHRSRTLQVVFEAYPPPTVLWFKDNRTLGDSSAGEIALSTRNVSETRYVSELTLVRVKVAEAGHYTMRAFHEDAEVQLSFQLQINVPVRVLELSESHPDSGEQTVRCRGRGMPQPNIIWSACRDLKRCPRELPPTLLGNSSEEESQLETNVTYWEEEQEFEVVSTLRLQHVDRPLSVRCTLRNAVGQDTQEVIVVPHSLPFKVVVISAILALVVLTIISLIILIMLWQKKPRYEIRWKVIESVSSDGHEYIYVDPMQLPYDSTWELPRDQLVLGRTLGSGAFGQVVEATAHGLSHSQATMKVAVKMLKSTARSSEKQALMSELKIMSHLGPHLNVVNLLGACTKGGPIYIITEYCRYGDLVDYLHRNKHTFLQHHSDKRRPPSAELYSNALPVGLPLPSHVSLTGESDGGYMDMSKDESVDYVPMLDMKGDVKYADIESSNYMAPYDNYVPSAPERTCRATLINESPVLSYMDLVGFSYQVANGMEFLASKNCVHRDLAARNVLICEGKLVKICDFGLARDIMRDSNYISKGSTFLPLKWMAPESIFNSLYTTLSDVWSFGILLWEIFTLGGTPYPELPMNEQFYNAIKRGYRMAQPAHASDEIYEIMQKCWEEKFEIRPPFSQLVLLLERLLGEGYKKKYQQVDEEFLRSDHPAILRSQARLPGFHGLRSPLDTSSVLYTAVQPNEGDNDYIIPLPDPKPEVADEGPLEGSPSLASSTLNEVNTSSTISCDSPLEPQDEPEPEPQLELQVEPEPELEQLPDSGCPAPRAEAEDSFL
T3 sequence (P35968 20-1356): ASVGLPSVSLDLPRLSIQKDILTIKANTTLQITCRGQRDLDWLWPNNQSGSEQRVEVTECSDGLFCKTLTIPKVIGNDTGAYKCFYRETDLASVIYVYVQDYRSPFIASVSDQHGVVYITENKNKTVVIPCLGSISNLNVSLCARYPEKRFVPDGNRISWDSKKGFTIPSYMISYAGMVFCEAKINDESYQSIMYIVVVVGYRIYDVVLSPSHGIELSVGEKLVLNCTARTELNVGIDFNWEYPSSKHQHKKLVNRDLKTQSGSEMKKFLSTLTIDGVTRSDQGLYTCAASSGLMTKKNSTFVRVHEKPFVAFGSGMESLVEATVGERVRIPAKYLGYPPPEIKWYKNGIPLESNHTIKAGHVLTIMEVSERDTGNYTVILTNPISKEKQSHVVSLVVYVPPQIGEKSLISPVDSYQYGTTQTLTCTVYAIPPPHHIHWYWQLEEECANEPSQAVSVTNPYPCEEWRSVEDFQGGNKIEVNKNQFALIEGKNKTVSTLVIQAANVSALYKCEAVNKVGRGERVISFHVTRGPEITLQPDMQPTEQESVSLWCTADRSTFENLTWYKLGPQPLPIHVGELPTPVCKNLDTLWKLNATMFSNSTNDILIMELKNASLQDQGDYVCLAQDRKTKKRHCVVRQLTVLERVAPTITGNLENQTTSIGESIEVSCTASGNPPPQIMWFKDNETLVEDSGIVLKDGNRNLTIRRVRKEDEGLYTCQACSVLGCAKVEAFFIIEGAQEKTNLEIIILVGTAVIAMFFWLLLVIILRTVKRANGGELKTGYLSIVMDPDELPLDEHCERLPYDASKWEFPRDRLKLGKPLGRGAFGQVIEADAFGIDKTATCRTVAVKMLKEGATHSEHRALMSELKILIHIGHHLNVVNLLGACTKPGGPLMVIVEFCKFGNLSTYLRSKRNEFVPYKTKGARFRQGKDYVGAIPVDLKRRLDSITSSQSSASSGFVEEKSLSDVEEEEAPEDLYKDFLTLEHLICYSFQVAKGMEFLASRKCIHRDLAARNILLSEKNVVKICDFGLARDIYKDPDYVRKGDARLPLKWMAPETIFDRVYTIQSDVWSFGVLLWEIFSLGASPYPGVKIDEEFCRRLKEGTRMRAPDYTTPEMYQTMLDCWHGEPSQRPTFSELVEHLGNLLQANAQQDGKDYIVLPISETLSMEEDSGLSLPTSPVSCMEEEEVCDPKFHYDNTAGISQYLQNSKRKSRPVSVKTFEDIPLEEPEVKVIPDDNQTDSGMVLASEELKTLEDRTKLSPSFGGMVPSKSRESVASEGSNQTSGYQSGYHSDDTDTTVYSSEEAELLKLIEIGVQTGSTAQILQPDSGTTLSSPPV

B1: CBT-labeled EGF (epidermal growth factor labeled with DY605-PEG-CBT on the N-terminal cysteine) (ligand)
chain: CDNNSDSECPLSHDGYCLHDGVCMYIEALDKYACNCVVGYIGERCQYRDLKWWELR
modifications: DY605-PEG-CBT on the N-terminal cysteine (>=95% efficiency)
For the molecule B1, it took 0.13 nM to reach a half-maximal effect in [1] (EC50). In assay [2], the Kd is 0.16 nM.

B2: EGF labeled with 2-fold molar excess of DY605-NHS-ester (ligand)
chain: B1 chain
modifications: DY605-NHS-ester on multiple lysines and on the N-terminus, heterogeneous (0-2 fluorophores per protein)
In the case of B2, in [1], it took 0.16 nM to reach a half-maximal effect (EC50).

B3: unlabeled EGF purified in the same manner (with CDN N-terminal appendage) (ligand)
chain: B1 chain
modifications: not fully specified
Consider B3, for which the half-maximal inhibitory concentration (IC50) in assay [3] worked out at 0.35 nM. For the same molecule, the inhibition constant (Ki) in assay [4] came out at 0.15 nM.

B4: EGF labeled with 5-fold molar excess of DY605-NHS-ester (ligand)
chain: B1 chain
modifications: DY605-NHS-ester on multiple lysines and on the N-terminus, heterogeneous (0-2 fluorophores per protein)
For the molecule B4, it took 0.25 nM to reach a half-maximal effect in [1] (EC50).

B5: CBT-labeled PDGF-BB homodimer (platelet-derived growth factor labeled with DY605-PEG-CBT on the N-terminal cysteine) (ligand)
chain: CDNSLGSLTIAEPAMIAECKTRTEVFEISRRLIDRTNANFLVWPPCVEVQRCSGCCNNRNVQCRPTQVQLRPVQVRKIEIVRKKPIFKKATVTLEDHLACKCETVAAARPVT
modifications: DY605-PEG-CBT on the N-terminal cysteine (>=95% efficiency)
Regarding B5, the response in assay [5] was half-maximal at 0.068 nM (EC50). The Kd in assay [6] amounted to 0.062 nM.

B6: unlabeled PDGF-BB homodimer purified in the same manner (with CDN N-terminal appendage) (ligand)
chain: B5 chain
In the case of B6, in [7], affinity was put at a Ki of 0.044 nM. Besides, the IC50 in assay [8] was found to be 0.11 nM.

B7: unlabeled VEGF165a homodimer purified in the same manner (with CDN N-terminal appendage) (ligand)
chain: CDNAPMAEGGGQNHHEVVKFMDVYQRSYCHPIETLVDIFQEYPDEIEYIFKPSCVPLMRCGGCCNDEGLECVPTEESNITMQIMRIKPHQGQHIGEMSFLQHNKCECRPKKDRARQENPCGPCSERRKHLFVQDPQTCKCSCKNTDSRCKARQLELNERTCRCDKPRR
modifications: disulfide-linked homodimer; unlabeled; mature VEGF165 limits by convention (191-aa AUG-initiated isoform precursor, signal 1-26)
As for B7, the IC50 in assay [9] was found to be 0.12 nM. Besides, in assay [10], affinity was put at a Ki of 0.047 nM.

B8: CBT-labeled VEGF165a homodimer (vascular endothelial growth factor isoform VEGF165a labeled with DY605-PEG-CBT on the N-terminal cysteine) (ligand)
chain: B7 chain
modifications: DY605-PEG-CBT on the N-terminal cysteine (>=95% efficiency)
Take B8: binding in assay [11] was characterised by a dissociation constant (Kd) of 0.049 nM.
